Legend:
[1] = target: human hair keratin (human hair, cut into 5 mm sections) (human); assay: quantitative hair binding test, anti-polyHis peroxidase conjugate, TMB; protein renatured
[2] = target: human hair keratin (human hair, cut into 5 mm sections) (human); assay: quantitative hair binding test, anti-polyHis peroxidase conjugate, TMB; protein denatured (not renatured)
[3] = target: human skin keratin (human); assay: quantitative skin binding test (human keratinocytes in microtiter plates), anti-His antibody, TMB; settings: scale: absorption at 405 nm, standardized to the surface
[4] = target: human skin keratin (human); assay: quantitative skin binding test (human keratinocytes in microtiter plates), anti-His antibody, TMB; after 10% strength SDS treatment; settings: scale: absorption at 405 nm, standardized to the surface
[5] = target: human hair keratin (human hair, cut into 5 mm sections) (human); assay: quantitative hair binding test, loss relative to untreated hair after 10% strength SDS treatment
[6] = target: human skin keratin (human); assay: quantitative skin binding test, loss relative to untreated skin after 10% strength SDS treatment
hair = assay: Hair-binding activity of KBD-B-panthenol (Example 24a)
Description: In order to check whether KBD-B also binds with coupled panthenol to hair, a quantitative binding assay was carried out (see FIG. 6): In this test, hair was firstly incubated with KBD-B-panthenol and nonbound KBD-B-panthenol was washed off. A peroxidase was then coupled via the His tag of the KBD-B. Nonbound peroxidase was washed off again. The bound peroxidase can convert a colorless substrate (TMB) into a colored product which was measured photometrically at 405 nm. The intensity of the absorption indicates the amount of bonded KBD-B-panthenol. As comparison sample, KBD-B without panthenol was chosen.
Only above a mixing ratio of 1:4 does the hair binding activity decrease. Coupling to lysines or cysteines present in the protein structure which is no longer selective could be responsible for this, which could lead to an unfolding and thus poorer hair coupling of the protein.

hair (human) [7] = assay: Quantitative binding to hair (KBD activity test hair, Example 10); settings: for measured absorption values at 405 nm (quantitative KBD activity test hair): human hair, detection via His tag with antibody-peroxidase conjugate and TMB; for binding to hair, KBD-B compared with comparison protein: binding test on hair, result in words
Description: In this test, hair was firstly incubated with KBD and excess KBD was washed off. An antibody-peroxidase conjugate was then coupled via the His tag of the KBD. Nonbound antibody-peroxidase conjugate was washed off again. The bound anti body-peroxidase conjugate [Monoclonal AntipolyHistidine Peroxidase Conjugate, produced in mouse, lyophilized powder, Sigma] can convert a colorless substrate (TMB) into a colored product, which can be measured photometrically at 405 nm. The intensity of the absorption indicates the amount of bound KBD or comparison protein. The comparison protein chosen was, for example, YaaD from B. subtilis, which likewise had—as is necessary for this test—a His tag for the detection. Instead of the His tag, other specific antibodies conjugated with peroxidase can also be used.
(or at least 2 h at room temperature) with gentle swinging movements. • Centrifugation, removal of the supernatant • 3× washing with PBS […] • Incubation with 1 ml monoclonal mouse anti-tag (His6 or HA) antibodies with peroxidase:conjugate (1:2000 in PBS/0.05% Tween 20) [Monoclonal AntipolyHistidine Peroxidase Conjugate, produced in mouse, lyophilized powder, Sigma] for 2-4 h at room temperature, gentle swinging movement • 3× washing with PBS/0.05% Tween 20 • Addition of peroxidase substrate (1 ml/Eppendorf vessel) • Allow reaction to proceed until blue coloration (about 2 minutes). • Stop the reaction with […] of 2 M H2SO4. • The absorption is measured at 405 nm.
Peroxidase Substrate (Prepare Shortly Beforehand):
0.1 ml TMB solution (42 mM TMB in DMSO) +10 ml of substrate buffer (0.1 M sodium acetate pH 4.9) +14.7 μl H2O2 3% strength BSA=Bovine serum albumin PBS=Phosphate buffered salt solution
Tween 20=polyoxyethylene sorbitan monolaureate, n about 20
TMB=3,5,3′,5′-tetramethylbenzidine

human keratinocytes = assay: Quantitative binding to skin (Example 15)
Description: (§1) In order to investigate the binding strength of the KBD-D (SEQ ID No.:168) to skin and hair compared to the KBD-B (SEQ ID No.:166), a quantitative test was carried out. In this test firstly hair was incubated with KBD-B or KBD-D and excess KBD-D or -D was washed off. An antibody-peroxidase conjugate was then coupled via the His/tag of the KBD-B or -D. Nonbound antibody-peroxidase conjugate was washed off again. The bound antibody-peroxidase conjugate can convert a colorless substrate (TMB) into a colored product, which was measured photometrically at 405 nm. The intensity of the absorption indicates the amount of bound KBD-B or -D.
The test for binding to skin was carried out with human keratinocytes in microtiter plates as follows. • 2× washing with PBS/0.05% Tween 20 • addition of 1 ml of 1% BSA in PBS and incubation for 1 h at room temperature, gentle swinging movements (900 rpm). • removal of the supernatant • addition of 100 μg of KBD in PBS with 0.03% Tween 20; incubation for 2 h at room temperature and gentle swinging movements (900 rpm). • removal of the supernatant • 3× washing with PBS/0.05% Tween 20 • incubation with 1 ml of monoclonal mouse anti-tag-His6 antibodies for 2-4 h at room temperature, gentle swinging movement (900 rpm) • 3× washing with PBS/0.05% Tween 20 • addition of peroxidase substrate (1 ml/Eppendorf vessels composition see below) reaction until a blue coloration (about 90 seconds). • reaction stopped with 100 μl of 2 M H2SO4. • the absorption was measured at 405 nm.
(§2) Peroxidase Substrate (Prepared Shortly Beforehand):
0.1 ml TMB solution (42 mM TMB in DMSO) +10 ml substrate buffer (0.1 M sodium acetate pH 4.9) +14.7 μl H2O2 3% strength

hair (human) [8] = assay: Quantitative binding to hair (Example 15); settings: relative to untreated hair
Description: as §1
In order to characterize the hair binding of the KBD-D compared to the KBD-B, the following binding assay was carried out:
5 mg of hair (human) were cut into sections 5 mm in length and transferred to Eppendorf vessels (protein low-bind). • addition of 1 ml of ethanol for degreasing • centrifugation, removal of ethanol and washing of the hair with H2O • centrifugation, removal of the supernatant • addition of the keratin-binding domains to be tested (coupled to tag—e.g. His6, HA etc.) in 1 ml of PBS/0.05% Tween 20; incubation for 2 h at room temperature with gentle swinging movements • centrifugation, removal of the supernatant • 3× washing with PBS/0.05% Tween 20 • incubation with 1 ml monoclonal mouse anti-tag-(His6 or HA) antibodies with peroxidase conjugate (1:2000 in PBS/0.05% Tween 20) [Monoclonal AntipolyHistidine Peroxidase Conjugate, produced in mouse, lyophilized powder, Sigma] for 2-4 h at room temperature, gentle swinging movement • 3× washing with PBS/0.05% Tween 20 • addition of peroxidase substrate (1 ml/Eppendorf vessel) • allow reaction to proceed until blue coloration (90 seconds). • stop the reaction with 100 μl of 2 M H2SO4.
The absorption was measured at 405 nm
as §2
0.1 ml TMB solution (42 mM TMB in DMSO) +10 ml substrate buffer (0.1 M sodium acetate pH 4.9) +14.7 μl H2O2 3% strength BSA=bovine serum albumin PBS=phosphate buffered salt solution Tween 20=polyoxyethylene sorbitan monolaureate, n about 20 TMB=3,5,3′,5′-tetramethylbenzidine

[9] = target: human hair keratin (human hair, cut into 5 mm sections) (human); assay: quantitative hair binding test, anti-polyHis peroxidase conjugate, TMB

B1: KBD-B (keratin-binding domain B of human desmoplakin), expressed by the vector pQE30-KBD-B in E. coli (SEQ ID No.: 166) (protein)
chain: MRGSHHHHHHGSACELEPHTGLLLLSVQKRSMSFQGIRQPVTVTELVDSGILRPSTVNELESGQISYDEVGERIKDFLQGSSCIAGIYNETTKQKLGIYEAMKIGLVRPGTALELLEAQAATGFIVDPVSNLRLPVEEAYKRGLVGIEFKEKLLSAERAVTGYNDPETGNIISLFQAMNKELIEKGHGIRLLEAQIATGGIIDPKESHRLPVDIAYKRGYFNEELSEILSDPSDDTKGFFDPNTEENLTYLQLKERCIKDEETGLCLLPLKEKKKQVQTSQKNTLRKRRVVIVDPETNKEMSVQEGVDLQPSLIS
Absorption at 405 nm [1]: 1.59 A405 nm | Absorption at 405 nm [2]: 0.254 A405 nm | Absorption at 405 nm [3]: 0.93 | Absorption at 405 nm [4]: 0.185 | Relative absorption loss after 10% strength SDS treatment in % [5]: 86% | Relative absorption loss after 10% strength SDS treatment in % [6]: 80%

B2: panthenol-coupled KBD-B: KBD-B (SEQ ID No.: 166) coupled via the maleimidocaproic acid linker with panthenol, Example 22 (conjugate, listed as Homo sapiens)
chain: MRGSHHHHHHGSACELEPHTGLLLLSVQKRSMSFQGIRQPVTVTELVDSGILRPSTVNELESGQISYDEVGERIKDFLQGSSCIAGIYNETTKQKLGIYEAMKIGLVRPGTALELLEAQAATGFIVDPVSNLRLPVEEAYKRGLVGIEFKEKLLSAERAVTGYNDPETGNIISLFQAMNKELIEKGHGIRLLEAQIATGGIIDPKESHRLPVDIAYKRGYFNEELSEILSDPSDDTKGFFDPNTEENLTYLQLKERCIKDEETGLCLLPLKEKKKQVQTSQKNTLRKRRVVIVDPETNKEMSVQEGVDLQPSLIS
modifications: maleimidocaproic linker-panthenol conjugate
influence of coupling reaction temperature on hair binding activity (hair; FIG. 7): no decisive influence | hair binding activity of the coupled protein (hair; above a KBD-B:panthenol mixing ratio of 1:4 (FIG. 7)): decrease | hair binding activity of the coupled protein (hair; up to a KBD-B:panthenol mixing ratio of 1:2, compared with KBD-B without panthenol (FIG. 7)): remains virtually constant

B3: KBD-B denatured: KBD-B (SEQ ID No.: 166) from inclusion bodies, not renatured (protein, listed as Homo sapiens)
chain: MRGSHHHHHHGSACELEPHTGLLLLSVQKRSMSFQGIRQPVTVTELVDSGILRPSTVNELESGQISYDEVGERIKDFLQGSSCIAGIYNETTKQKLGIYEAMKIGLVRPGTALELLEAQAATGFIVDPVSNLRLPVEEAYKRGLVGIEFKEKLLSAERAVTGYNDPETGNIISLFQAMNKELIEKGHGIRLLEAQIATGGIIDPKESHRLPVDIAYKRGYFNEELSEILSDPSDDTKGFFDPNTEENLTYLQLKERCIKDEETGLCLLPLKEKKKQVQTSQKNTLRKRRVVIVDPETNKEMSVQEGVDLQPSLIS
modifications: denatured
measured absorption values at 405 nm (quantitative KBD activity test hair) (hair (human) [7]): A405 nm = 0.254

B4: KBD-B: keratin-binding domain B of human desmoplakin with N-terminal His tag, SEQ ID No.: 166, expressed in E. coli (protein, listed as Homo sapiens)
chain: MRGSHHHHHHGSACELEPHTGLLLLSVQKRSMSFQGIRQPVTVTELVDSGILRPSTVNELESGQISYDEVGERIKDFLQGSSCIAGIYNETTKQKLGIYEAMKIGLVRPGTALELLEAQAATGFIVDPVSNLRLPVEEAYKRGLVGIEFKEKLLSAERAVTGYNDPETGNIISLFQAMNKELIEKGHGIRLLEAQIATGGIIDPKESHRLPVDIAYKRGYFNEELSEILSDPSDDTKGFFDPNTEENLTYLQLKERCIKDEETGLCLLPLKEKKKQVQTSQKNTLRKRRVVIVDPETNKEMSVQEGVDLQPSLIS
Relative absorption loss after 10% strength SDS treatment in %, skin (human keratinocytes; relative to untreated skin): 80% | Absorption at 405 nm, binding to skin after 10% strength SDS treatment (human keratinocytes; values standardized to the surface, after 10% strength SDS treatment): 0.185 | Absorption at 405 nm, binding to skin (human keratinocytes; values standardized to the surface, no SDS treatment): 0.93 | binding to hair, KBD-B compared with comparison protein (hair (human) [7]): considerable superiority | Relative absorption loss after 10% strength SDS treatment in %, hair (hair (human) [8]): 86%

B5: KBD-B renatured: KBD-B (SEQ ID No.: 166) renatured by dialysis (protein, listed as Homo sapiens)
chain: MRGSHHHHHHGSACELEPHTGLLLLSVQKRSMSFQGIRQPVTVTELVDSGILRPSTVNELESGQISYDEVGERIKDFLQGSSCIAGIYNETTKQKLGIYEAMKIGLVRPGTALELLEAQAATGFIVDPVSNLRLPVEEAYKRGLVGIEFKEKLLSAERAVTGYNDPETGNIISLFQAMNKELIEKGHGIRLLEAQIATGGIIDPKESHRLPVDIAYKRGYFNEELSEILSDPSDDTKGFFDPNTEENLTYLQLKERCIKDEETGLCLLPLKEKKKQVQTSQKNTLRKRRVVIVDPETNKEMSVQEGVDLQPSLIS
modifications: renatured
measured absorption values at 405 nm (quantitative KBD activity test hair) (hair (human) [7]): A405 nm = 1.591

B6: Comparison protein YaaD from B. subtilis (His-tagged) (protein, UniProt P37527 1-294, looked up)
chain: MAQTGTERVKRGMAEMQKGGVIMDVINAEQAKIAEEAGAVAVMALERVPADIRAAGGVARMADPTIVEEVMNAVSIPVMAKARIGHIVEARVLEAMGVDYIDESEVLTPADEEFHLNKNEYTVPFVCGCRDLGEATRRIAEGASMLRTKGEPGTGNIVEAVRHMRKVNAQVRKVVAMSEDELMTEAKNLGAPYELLLQIKKDGKLPVVNFAAGGVATPADAALMMQLGADGVFVGSGIFKSDNPAKFAKAIVEATTHFTDYKLIAELSKELGTAMKGIEISNLLPEQRMQERGW
binding to hair, KBD-B compared with comparison protein (hair (human) [7]): significantly poorer binding | measured absorption values at 405 nm (quantitative KBD activity test hair) (hair (human) [7]): A405 nm = 0.088 | Absorption at 405 nm [9]: 0.088 A405 nm
